Data as given in FireProtDB (doi:10.1111/febs.13659).

B1: Cytosolic beta-glucosidase, O61594 (parent)
chain: MKLLVVLSLVAVACNASIVRQQRRFPDDFLFGTATASYQIEGAWDEDGKGENIWDYMVHNTPEVIRDLSNGDIAADSYHNYKRDVEMMRELGLDAYRFSLSWARILPTGMANEVNPAGIAFYNNYIDEMLKYNITPLITLYHWDLPQKLQELGGFANPLISDWFEDYARVVFENFGDRVKMFITFNEPREICFEGYGSATKAPILNATAMGAYLCAKNLVTAHAKAYYLYDREFRPVQGGQCGITISVNWFGPATPTPEDEMAAELRRQGEWGIYAHPIFSAEGGFPKELSDKIAEKSAQQGYPWSRLPEFTEEEKAFVRGTSDLIGVNHYTAFLVSATERKGPYPVPSLLDDVDTGSWADDSWLKSASAWLTLAPNSIHTALTHLNNLYNKPVFYITENGWSTDESRENSLIDDDRIQYYRASMESLLNCLDDGINLKGYMAWSLMDNFEWMEGYIERFGLYEVDFSDPARTRTPRKAAFVYKHIIKHRVVDYEYEPETMVMTIDEGH

Variants of: B1
Conditions: Spodoptera frugiperda, pH 6, Thermal, Potassium phosphate 10mM, transition: 2, structure 5CG0, whole UniProt chain shown
[1] = Differential Scanning Fluorimetry

## S337F
[1]
  Tm: 40.4 °C
  change of melting temperature, mutant - wild type (higher = more stable): -4.58 °C

## S247A
[1]
  Tm: 45.3 °C
  change of melting temperature, mutant - wild type (higher = more stable): 0.3 °C

## M262F
CD
  Tm: 45.7 °C
  change of melting temperature, mutant - wild type (higher = more stable): -0.3 °C
  ddG of mutation (higher = less stable): -0.53 kcal/mol
  unfolding enthalpy (calorimetric): 91.7 kcal/mol
  unfolding free energy: 23.7 kcal/mol
[1]
  Tm: 45 °C
  change of melting temperature, mutant - wild type (higher = more stable): 0 °C

## A263F
CD
  Tm: 39.6 °C
  change of melting temperature, mutant - wild type (higher = more stable): -6.4 °C
  ddG of mutation (higher = less stable): 0.43 kcal/mol
  unfolding enthalpy (calorimetric): 44.2 kcal/mol
  unfolding free energy: 22.8 kcal/mol
[1]
  Tm: 40.6 °C
  change of melting temperature, mutant - wild type (higher = more stable): -4.4 °C

## L335A
CD
  Tm: 38.5 °C
  change of melting temperature, mutant - wild type (higher = more stable): -7.5 °C
  ddG of mutation (higher = less stable): 0.84 kcal/mol
  unfolding enthalpy (calorimetric): 55.2 kcal/mol
  unfolding free energy: 22.4 kcal/mol
[1]
  Tm: 40 °C
  change of melting temperature, mutant - wild type (higher = more stable): -5 °C

## F334A
CD
  Tm: 42.9 °C
  change of melting temperature, mutant - wild type (higher = more stable): -3.1 °C
  ddG of mutation (higher = less stable): 1.11 kcal/mol
  unfolding enthalpy (calorimetric): 72.5 kcal/mol
  unfolding free energy: 22.1 kcal/mol
[1]
  Tm: 42.5 °C
  change of melting temperature, mutant - wild type (higher = more stable): -2.5 °C

## S358A
[1]
  Tm: 42 °C
  change of melting temperature, mutant - wild type (higher = more stable): -3 °C

## D260A
[1]
  Tm: 40.8 °C
  change of melting temperature, mutant - wild type (higher = more stable): -4.2 °C

## Y420A
CD
  Tm: 37 °C
  change of melting temperature, mutant - wild type (higher = more stable): -9 °C
  ddG of mutation (higher = less stable): 1.42 kcal/mol
  unfolding enthalpy (calorimetric): 47.8 kcal/mol
  unfolding free energy: 21.8 kcal/mol
[1]
  Tm: 37.2 °C
  change of melting temperature, mutant - wild type (higher = more stable): -7.8 °C

## Y390A
CD
  Tm: 43 °C
  change of melting temperature, mutant - wild type (higher = more stable): -3 °C
  ddG of mutation (higher = less stable): 0.34 kcal/mol
  unfolding enthalpy (calorimetric): 72.5 kcal/mol
  unfolding free energy: 22.9 kcal/mol
[1]
  Tm: 45.1 °C
  change of melting temperature, mutant - wild type (higher = more stable): 0.1 °C

## N391A
CD
  Tm: 44.4 °C
  change of melting temperature, mutant - wild type (higher = more stable): -1.6 °C
[1]
  Tm: 46 °C
  change of melting temperature, mutant - wild type (higher = more stable): 1 °C

## L389A
CD
  Tm: 46.4 °C
  change of melting temperature, mutant - wild type (higher = more stable): 0.4 °C
  ddG of mutation (higher = less stable): -0.67 kcal/mol
  unfolding enthalpy (calorimetric): 81.1 kcal/mol
  unfolding free energy: 23.9 kcal/mol
[1]
  Tm: 46.6 °C
  change of melting temperature, mutant - wild type (higher = more stable): 1.6 °C

## V336F
CD
  Tm: 30 °C
  change of melting temperature, mutant - wild type (higher = more stable): -16 °C
  ddG of mutation (higher = less stable): 2.14 kcal/mol
  unfolding enthalpy (calorimetric): 51.6 kcal/mol
  unfolding free energy: 21.1 kcal/mol
[1]
  Tm: 34 °C
  change of melting temperature, mutant - wild type (higher = more stable): -11 °C

## E261A
[1]
  Tm: 46.2 °C
  change of melting temperature, mutant - wild type (higher = more stable): 1.2 °C

## L100A
CD
  Tm: 46.4 °C
  change of melting temperature, mutant - wild type (higher = more stable): 0.4 °C
  ddG of mutation (higher = less stable): -0.81 kcal/mol
  unfolding enthalpy (calorimetric): 53 kcal/mol
  unfolding free energy: 24 kcal/mol
[1]
  Tm: 47.6 °C
  change of melting temperature, mutant - wild type (higher = more stable): 2.6 °C

## E265A
CD
  Tm: 44.9 °C
  change of melting temperature, mutant - wild type (higher = more stable): -1.1 °C
  ddG of mutation (higher = less stable): -0.43 kcal/mol
  unfolding enthalpy (calorimetric): 51.1 kcal/mol
  unfolding free energy: 23.6 kcal/mol
[1]
  Tm: 44.9 °C
  change of melting temperature, mutant - wild type (higher = more stable): -0.1 °C

## F251A
CD
  Tm: 42.2 °C
  change of melting temperature, mutant - wild type (higher = more stable): -3.8 °C
  ddG of mutation (higher = less stable): 0.67 kcal/mol
  unfolding enthalpy (calorimetric): 52.3 kcal/mol
  unfolding free energy: 22.5 kcal/mol
[1]
  Tm: 42.4 °C
  change of melting temperature, mutant - wild type (higher = more stable): -2.6 °C

## N249A
CD
  Tm: 38.5 °C
  change of melting temperature, mutant - wild type (higher = more stable): -7.5 °C
  ddG of mutation (higher = less stable): 0.94 kcal/mol
  unfolding enthalpy (calorimetric): 48.2 kcal/mol
  unfolding free energy: 22.3 kcal/mol
[1]
  Tm: 39 °C
  change of melting temperature, mutant - wild type (higher = more stable): -6 °C

## K366A
CD
  Tm: 41.5 °C
  change of melting temperature, mutant - wild type (higher = more stable): -4.5 °C
  ddG of mutation (higher = less stable): 1.25 kcal/mol
  unfolding enthalpy (calorimetric): 74.6 kcal/mol
  unfolding free energy: 22 kcal/mol
[1]
  Tm: 41 °C
  change of melting temperature, mutant - wild type (higher = more stable): -4 °C

## L350A
CD
  Tm: 43.5 °C
  change of melting temperature, mutant - wild type (higher = more stable): -2.5 °C
  ddG of mutation (higher = less stable): 0.7 kcal/mol
  unfolding enthalpy (calorimetric): 61.4 kcal/mol
  unfolding free energy: 22.5 kcal/mol
[1]
  Tm: 43.8 °C
  change of melting temperature, mutant - wild type (higher = more stable): -1.2 °C
